US20040087767

Biological target: A-183-CS-Z-fusion peptide, P38507

B1: Factor VIIa (protein)
chain: ANAFLEELRPGSLERECKEEQCSFEEAREIFKDAERTKLFWISYSDGDQCASSPCQNGGSCKDQLQSYICFCLPAFEGRNCETHKDDQLICVNENGGCEQYCSDHTGTKRSCRCHEGYSLLADGVSCTPTVEYPCGKIPILEKRNASKPQGRIVGGKVCPKGECPWQVLLLVNGAQLCGGTLINTIWVVSAAHCFDKIKNWRNLIAVLGEHDLSEHDGDEQSRRVAQVIIPSTYVPGTTNHDIALLRLHQPVVLTDHVVPLCLPERTFSERTLAFVRFSLVSGWGQLLDRGATALELMVLNVPRLMTQDCLQQSRKVGDSPNITEYMFCAGYSDGSKDSCKGDSGGPHATHYRGTWYLTGIVSWGQGCATVGHFGVYTRVSQYIEWLQKLMRSEPRPGVLLRAPFP
B1 was tested, and the “cleavage of the fusion peptide by FVIIa (HPLC, SDS-PAGE, N-terminal sequencing, mass spectrometry)” value was “the fusion peptide was cleaved after the putative P1 arginine only under enzymatically favorable conditions (sTF, pH 8.5); no cleavage was observed at pH 6.0 and the absence of sTF”.
